Assay results as given in PMC3094755, “The DNA-Binding Domain of Human PARP-1 Interacts with DNA Single-Strand Breaks as a Monomer through Its Second Zinc Finger”.

Experiments:
Conditions in all cases: protein: recombinant; label: fluorescein-dT at T8; single-chain dumbbell, 18 bp with central nick, two tetraloops
PARP-1 F2 K141I = PARP-1 F2 K141I (Homo sapiens, UniProt P09874 103-214, K141I); experiment: fluorescence anisotropy; 25 mM NaCl, one-site fit; 50 mM Tris-HCl pH 7.0, 150 uM ZnSO4, 4 mM DTT, 25 C; NaCl 0-200 mM (T2, as in cof; 10 nM DNA) or 25 mM (T3 mutants; 25 nM DNA)
PARP-1 F2 K141I, sequence (P09874 103-214 K141I): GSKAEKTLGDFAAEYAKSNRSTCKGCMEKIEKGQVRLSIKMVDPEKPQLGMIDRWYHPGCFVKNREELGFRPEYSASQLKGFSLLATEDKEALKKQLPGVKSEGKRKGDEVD

PARP-1 F2 [1] = target: T1, PARP-1 F2 (Homo sapiens, UniProt P09874 103-214); experiment: as above
T1 sequence (P09874 103-214): as the sequence (P09874 103-214 K141I) above, with I39K counted along it

PARP-1 F2 W157I = PARP-1 F2 W157I (Homo sapiens, UniProt P09874 103-214, W157I); experiment: as above
PARP-1 F2 W157I, sequence (P09874 103-214 W157I): as the sequence (P09874 103-214 K141I) above, with I39K, W55I counted along it

PARP-1 F2 K142I = PARP-1 F2 K142I (Homo sapiens, UniProt P09874 103-214, K142I); experiment: as above
PARP-1 F2 K142I, sequence (P09874 103-214 K142I): as the sequence (P09874 103-214 K141I) above, with I39K, K40I counted along it

PARP-1 F2 [2] = target: T1, PARP-1 F2; experiment: fluorescence anisotropy; 100; 50 mM Tris-HCl pH 7.0, 150 uM ZnSO4, 4 mM DTT, 25 C; NaCl 0-200 mM (T2, as in cof; 10 nM DNA) or 25 mM (T3 mutants; 25 nM DNA)
[3] = target: T2, PARP-1 F1+F2 (24-kDa DBD) (Homo sapiens, UniProt P09874 1-214); experiment: as above
T2 sequence (P09874 1-214): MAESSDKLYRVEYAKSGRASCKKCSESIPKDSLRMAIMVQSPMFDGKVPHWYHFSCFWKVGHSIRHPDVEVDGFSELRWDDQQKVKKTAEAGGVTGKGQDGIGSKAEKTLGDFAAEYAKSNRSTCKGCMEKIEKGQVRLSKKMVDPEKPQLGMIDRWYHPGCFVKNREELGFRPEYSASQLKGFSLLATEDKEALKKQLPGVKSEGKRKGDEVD

PARP-1 F2 [4] = target: T1, PARP-1 F2; experiment: fluorescence anisotropy; 50; 50 mM Tris-HCl pH 7.0, 150 uM ZnSO4, 4 mM DTT, 25 C; NaCl 0-200 mM (T2, as in cof; 10 nM DNA) or 25 mM (T3 mutants; 25 nM DNA)
[5] = target: T2, PARP-1 F1+F2 (24-kDa DBD); experiment: as above
[6] = target: T2, PARP-1 F1+F2 (24-kDa DBD); experiment: fluorescence anisotropy; 0; 50 mM Tris-HCl pH 7.0, 150 uM ZnSO4, 4 mM DTT, 25 C; NaCl 0-200 mM (T2, as in cof; 10 nM DNA) or 25 mM (T3 mutants; 25 nM DNA)
[7] = target: T3, DNA ligase III alpha zinc finger (DL3) (UniProt P49916-3 1-117); experiment: fluorescence anisotropy; 20 mM pyrophosphate pH 7.0; more similar to F2 than F1; FA: 50 mM Tris-HCl pH 7, 150 uM ZnSO4, 4 mM DTT, 0-200 mM NaCl, 25 C, 10 nM DNA (mutants 25 nM DNA, 25 mM NaCl); EMSA: 50 mM Tris-HCl pH 7.4, 150 uM ZnSO4, 4 mM DTT, 10% glycerol, RT incubation, gel at 4 C; NMR complexes: 50 mM Tris pH 7.0, 150 uM ZnSO4, 4 mM DTT, 37 C
T3 sequence: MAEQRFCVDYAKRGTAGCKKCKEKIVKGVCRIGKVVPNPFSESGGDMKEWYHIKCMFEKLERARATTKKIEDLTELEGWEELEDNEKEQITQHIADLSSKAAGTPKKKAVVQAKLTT

PARP-1 F2 K141I/K142I = PARP-1 F2 K141I/K142I (Homo sapiens, UniProt P09874 103-214, K141I;K142I); experiment: fluorescence anisotropy; 25 mM NaCl; apparent, one-site model; FA: 50 mM Tris-HCl pH 7, 150 uM ZnSO4, 4 mM DTT, 0-200 mM NaCl, 25 C, 10 nM DNA (mutants 25 nM DNA, 25 mM NaCl); EMSA: 50 mM Tris-HCl pH 7.4, 150 uM ZnSO4, 4 mM DTT, 10% glycerol, RT incubation, gel at 4 C; NMR complexes: 50 mM Tris pH 7.0, 150 uM ZnSO4, 4 mM DTT, 37 C
PARP-1 F2 K141I/K142I, sequence (P09874 103-214 K141I/K142I): as the sequence (P09874 103-214 K141I) above, with K40I counted along it

[8] = target: T2, PARP-1 F1+F2 (24-kDa DBD); experiment: fluorescence anisotropy; 25; 50 mM Tris-HCl pH 7.0, 150 uM ZnSO4, 4 mM DTT, 25 C; NaCl 0-200 mM (T2, as in cof; 10 nM DNA) or 25 mM (T3 mutants; 25 nM DNA)
[9] = target: T2, PARP-1 F1+F2 (24-kDa DBD); experiment: fluorescence anisotropy; 150; 50 mM Tris-HCl pH 7.0, 150 uM ZnSO4, 4 mM DTT, 25 C; NaCl 0-200 mM (T2, as in cof; 10 nM DNA) or 25 mM (T3 mutants; 25 nM DNA)

CGGTCGATCGTAAGATCGACCGGCGCTGGAGCTTGCTCCAGCGC (structured_DNA, 5'-phosphate) [44-nt nicked dumbbell, 5'-phosphate, fluorescein-dT]
Kd (PARP-1 F2 K141I): 1490 nM
Kd (PARP-1 F2 [1]): 343 nM
Kd (PARP-1 F2 W157I): 4930 nM
Kd (PARP-1 F2 K142I): 1180 nM
Kd (PARP-1 F2 [2]): 146 nM
Kd [3]: 9.37 nM
Kd (PARP-1 F2 [4]): 130 nM
Kd [5]: 8.02 nM
Kd [6]: 5.75 nM
binding result [7]: binds
Kd (PARP-1 F2 K141I/K142I): 3930 nM
Kd [8]: 20.4 nM
Kd [9]: 24.6 nM
